In assay [1] the target is Lcl-N GFP fusion (N-GFP) (Legionella pneumophila strain 130b). In words: SEC.
For assay [2], the target named is Legionella collagen-like protein (Lcl) from L. pneumophila strain 130b, intact recombinant (residues 1-401) (Legionella pneumophila strain 130b). Kind of assay: SEC-MALS.

This passage reports stoichiometry N results from publication PMC11162425.

Broadly, the stoichiometry N is the number of molecules, sites or subunits per partner or assembly. Take “Lcl-N GFP fusion (N-GFP) (domain or fragment)”: in assay [1], the stoichiometry N is 3.

As for “Legionella collagen-like protein (Lcl) from L. pneumophila strain 130b, intact recombinant (residues 1-401) (natural protein)”, the stoichiometry N in assay [2] turned out to be 3.
